Tests used:
complement C3 (human) [1] = molecular target: complement C3 (human)
complement C3 (human) [2] = test: SPR; ~2,000 RU C3 immobilised on a CM5 chip; rHC1 as analyte; HEPES-buffered saline pH 7.5, 0.05% Tween 20, 2 mM MnCl2
complement C3 (human) [3] = test: SPR; ~2,000 RU C3 immobilised on a CM5 chip by amide coupling; rHC1 or IαI as analyte; HEPES-buffered saline pH 7.5, 0.05% Tween 20, 2 mM Mg2+, 2 mM Mn2+; multicycle kinetics, 1:1 Langmuir

B1: recombinant inter-α-inhibitor heavy chain 1 (rHC1), wild type (natural protein)
chain: SKSSEKRQAVDTAVDGVFIRSLKVNCKVTSRFAHYVVTSQVVNTANEAREVAFDLEIPKTAFISDFAVTADGNAFIGDIKDKVTAWKQYRKAAISGENAGLVRASGRTMEQFTIHLTVNPQSKVTFQLTYEEVLKRNHMQYEIVIKVKPKQLVHHFEIDVDIFEPQGISKLDAQASFLPKELAAQTIKKSFSGKKGHVLFRPTVSQQQSCPTCSTSLLNGHFKVTYDVSRDKICDLLVANNHFAHFFAPQNLTNMNKNVVFVIDISGSMRGQKVKQTKEALLKILGDMQPGDYFDLVLFGTRVQSWKGSLVQASEANLQAAQDFVRGFSLDEATNLNGGLLRGIEILNQVQESLPELSNHASILIMLTDGDPTEGVTDRSQILKNVRNAIRGRFPLYNLGFGHNVDFNFLEVMSMENNGRAQRIYEDHDATQQLQGFYSQVAKPLLVDVDLQYPQDAVLALTQNHHKQYYEGSEIVVAGRIADNKQSSFKADVQAHGEGQEFSITCLVDEEEMKKLLRERGHMLENHVERLWAYLTIQELLAKRMKVDREERANLSSQALQMSLDYGFVTPLTSMSIRGMADQDGLKPTIDKPSEDSPPLEMLGPRRTFVLSALQPSPTHSSSNTQRLPDRVTGVDTD
fluid phase alternative pathway C3 convertase (C3bBb) assay, proteolytic release of C3a quantified by SDS-PAGE; rHC1 at 0 to 27 μM (complement C3 (human) [1]): 980 nM | Kd (complement C3 (human) [2]): 473 nM | Kd (complement C3 (human) [3]): 364 nM

From paper PMC7170535
